The values that follow come from US20200054736A1.

pKd: −log10 of the molar value.

Assay [1] deals with meHER2-CAR, orientation Lc-Hc28ζ (meditope-enabled trastuzumab Fab-CAR). Nature of the assay: flow cytometry of lentivirally transduced primary human T cells stained with Meditope-AF647, top trace meHer2 (Lc-Hc28ζ). Untransduced control on the sheet: 1.83% MFI:1306.
The target in assay [2] is meHER2-CAR, orientation Hc28ζ-Lc (meditope-enabled trastuzumab Fab-CAR). As to the kind of experiment: flow cytometry of meHer2 (Hc28 ζ-Lc) T cells pre-bound to meditope peptide and stained with protein L. Untransduced control, same quadrant: 0.50%.
The target is the same in assay [3]. As to the kind of experiment: flow cytometry of lentivirally transduced primary human T cells stained with Meditope-AF647, middle trace meHer2 (Hc28 ζ-Lc). Untransduced control on the sheet: 1.83% MFI:1306.
In assay [4] the target is meHER2-CAR, orientation Lc-Hc28ζ (meditope-enabled trastuzumab Fab-CAR). As to the kind of experiment: flow cytometry of meHer2 (Lc-Hc28ζ) T cells pre-bound to meditope peptide and stained with protein L. Untransduced control, same quadrant: 0.50%.
Assay [5] shares this target. Nature of the assay: flow cytometry of meHer2 (Lc-Hc28ζ) T cells pre-bound to meditope peptide and stained with protein L. Untransduced control, same quadrant: 7.23%.
For assay [6] the target is unchanged. Nature of the assay: flow cytometry of meHer2 (Lc-Hc28ζ) T cells pre-bound to meditope peptide and stained with protein L. Untransduced control, same quadrant: 0.63%.
Assay [7] addresses meHER2-CAR, orientation Hc28ζ-Lc (meditope-enabled trastuzumab Fab-CAR). Nature of the assay: flow cytometry of lentivirally transduced primary human T cells stained with protein L, middle trace meHer2 (Hc28 ζ-Lc). Untransduced control on the sheet: 13.16% MFI:1418.
For assay [8] the target is unchanged. As to the kind of experiment: flow cytometry of meHer2 (Hc28 ζ-Lc) T cells pre-bound to meditope peptide and stained with protein L. Untransduced control, same quadrant: 0.63%.
Assay [9] shares this target. Nature of the assay: flow cytometry of meHer2 (Hc28 ζ-Lc) T cells pre-bound to meditope peptide and stained with protein L. Untransduced control, same quadrant: 7.23%.
Assay [10] addresses original trastuzumab meFab. As to the kind of experiment: Kinexa experiments, 25° C. (data not shown).
Assay [11] deals with Fab of the meditope-Fab interaction (not specified). Nature of the assay: estimated; method not stated.

For the substance Meditope-AF647 (peptide), the % positive cells (marker gate) in assay [1] is 57.1%; in [3] it was 54.4%. Moreover, the % cells Meditope+ Protein L- (upper left quadrant) came out at 2.6% in [2] and 2.09% in assay [4].

Turning to protein L, the % cells Meditope- Protein L+ (lower right quadrant) in assay [5] stood at 16.1%; in assay [9], 4.04%. For the same substance, the % cells Meditope+ Protein L+ (upper right quadrant) stood at 43.1% in assay [6] and 42.1% in assay [8]. This substance returned a % positive cells (marker gate) in [7] of 51.8%.

For meditope-protein L fusion (MPL), in assay [10], the pKd was 10.85 and the fold over the affinity of the individual components was 87000 fold. The half-life of the complex in assay [11] was greater than 80 days.
